# B1: MetK* S273F (protein, UniProt P0A817 2-384, looked up, variant S273F)
# S-adenosylmethionine synthase: AKHLFTSESVSEGHPDKIADQISDAVLDAILEQDPKARVACETYVKTGMVLVGGEITTSAWVDIEEITRNTVREIGYVHSDMGFDANSCAVLSAIGKQSPDINQGVDRADPLEQGAGDQGLMFGYATNETDVLMPAPITYAHRLVQRQAEVRKNGTLPWLRPDAKSQVTFQYDDGKIVGIDAVVLSTQHSEEIDQKSLQEAVMEEIIKPILPAEWLTSATKFFINPTGRFVIGGPMGDCGLTGRKIIVDTYGGMARHGGGAFSGKDPSKVDRFAAYAARYVAKNIVAAGLADRCEIQVSYAIGVAEPTSIMVETFGTEKVPSEQLTLLVREFFDLRPYGLIQMLDLLHPIYKETAAYGHFGREHFPWEKTDKAQLLRDAAGLK
# System: S-adenosylmethionine synthetase
# Experiment: S-adenosylmethionine synthetase (MAT) activity in vitro in crude extracts, FIA-MS/MS
# Assay type: biochemical, E. coli
# Conditions: 10 mM methionine, 10 mM ATP, 37° C., 30 minutes
molecule,measurement,value
B1,MAT (S-adenosylmethionine synthetase activity),2.2 mUI/mg prot

# — US8795990B2, “Recombinant enzyme with altered feedback sensitivity” (Metabolic Explorer, priority 2004, dated 2014)
